Data set [1] addresses HIV-1 reverse transcriptase (HIV-1 RT) (HIV-1, UniProt P04585;P04585 588-1147;588-1027). Kind of data set: EDL FET (AlGaN/GaN HEMT) biosensor; 1X PBS with 1% BSA; 1 fM-10 pM RT; current gain decreases with concentration; 1X PBS with 1% BSA (or undiluted human serum for CRP), 5 min incubation for HIV-1 RT, no washing; Vd 2 V, Vg pulse 0 to 0.5 V (HIV-1 RT); pH and temperature not stated. To be noted: copies: 1;1.

The target of the next data set is T1, C-reactive protein (CRP) (UniProt P02741 19-224).
T1 sequence: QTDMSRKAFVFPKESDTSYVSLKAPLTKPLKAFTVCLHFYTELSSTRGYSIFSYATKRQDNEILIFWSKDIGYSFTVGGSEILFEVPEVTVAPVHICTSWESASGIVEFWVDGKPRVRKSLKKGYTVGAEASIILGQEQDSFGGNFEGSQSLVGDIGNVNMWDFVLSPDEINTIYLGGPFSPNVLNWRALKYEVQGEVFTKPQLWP
Briefly: EDL FET (AlGaN/GaN HEMT) biosensor; 1X PBS with 1% BSA; 1 fM-100 nM CRP; current gain increases with concentration; 1X PBS with 1% BSA (or undiluted human serum for CRP), 5 min incubation for HIV-1 RT, no washing; Vd 2 V, Vg pulse 0 to 0.5 V (HIV-1 RT); pH and temperature not stated. The note with it: chain copies: 5.

Data set [2] addresses T2, C-reactive protein (CRP) in clinical serum (human, UniProt P02741 19-224).
T2 sequence: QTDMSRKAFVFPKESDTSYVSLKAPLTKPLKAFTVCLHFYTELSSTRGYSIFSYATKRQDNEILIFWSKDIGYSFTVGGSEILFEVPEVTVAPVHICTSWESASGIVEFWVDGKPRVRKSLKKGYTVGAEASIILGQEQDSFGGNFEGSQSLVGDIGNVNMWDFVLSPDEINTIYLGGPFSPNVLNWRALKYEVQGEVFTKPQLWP
Briefly: EDL FET (AlGaN/GaN HEMT) biosensor; undiluted human sera; 0.34-23.2 mg/L CRP; 1X PBS with 1% BSA (or undiluted human serum for CRP), 5 min incubation for HIV-1 RT, no washing; Vd 2 V, Vg pulse 0 to 0.5 V (HIV-1 RT); pH and temperature not stated. To be noted: protein: native; chain copies: 5.

For TTTTTTTATACGTGAGCGTGCTGTCCCCTAAAGGTGATACGTCAGGGG (ssDNA, 5' thiol (SH)) [HIV-1 RT aptamer], in data set [1], the binding result is “binds”.

B1: CRP aptamer (ssDNA)
DNA: GGCAGGAAGACAAACACGATGGGGGGGTATGATTTGATGTGGTTGTTGCATGATCGTGGTCTGTGGTGCTGT
modifications: 5' thiol (SH)
On to B1, for which the binding result (with C-reactive protein (CRP); in data set [2]) was “binds” each time.

Values taken from PMC5507911, “Beyond the Debye length in high ionic strength solution: direct protein detection with field-effect transistors (FETs) in human serum”.
